Test results published in paper PMC6004266.

Target: Alternative Complex III from Flavobacterium johnsoniae (Flavobacterium johnsoniae (endogenous, ATCC 17061 strain UW101))
Assay: cryo-EM structure

“aa3-type cytochrome c oxidase from Flavobacterium johnsoniae (complex)” gave a stoichiometry N (ACIII:cyt aa3) of 1.
